The subject of one series is retina. Nature of the series: Retinal toxicity after intravitreal injection (histology of retinal sections). Type of series: in vivo, Brown Norway rats. Here is the method: (§1) Induction of retinal neovascularization and intravitreal injection of kallistatin: Retinal neovascularization was induced as described by Smith et al. (Smith et al., 1994) with some modifications. Briefly, newborn pigmented Brown Norway rats at postnatal day 7 (P7) were exposed to hyperoxia (75% O2) for 5 days and then normoxia. Animals were anesthetized, and kallistatin was injected into the vitreous of the right eye through the pars plana using a glass capillary. The left eye received the same volume of PBS as the control. After injection, the animals were kept in normoxia for another 5 days for further analyses.

Another series deals with pericytes. In words: Quantification of viable cells by MTT assay, pericytes. Type of series: cell-based, bovine. The note with it: 5-160 nM, 72 h, P>0.05. Here is the method:
FIG. 2 illustrates the specific inhibition of endothelial cell proliferation by recombinant kallistatin. RCEC were treated with recombinant kallistatin at concentrations of 5,10, 20, 40, 80 and 160 nM for 72 h. Viable cells were quantified by MTT assay. […] This effect appeared to be kallistatin concentration-dependent, with an apparent IC50 of 50 nM (FIG. 2) which is similar to that of K5, a known angiogenic inhibitor (Zhang et al., 2001).
Quantification of viable cells: Cells were plated in 12-well plates in triplicate and cultured in the growth medium until they reached 60-70% of confluency. The culture medium was replaced with a medium containing 1% fetal bovine serum (FBS). Recombinant kallistatin was added to the cover medium to various concentrations and incubated with the cells for 72 h. The viable cells were quantified by the MTT (3-[4,5-dimethylthiazol-2-yl]-2,5-dephenyl tetrazolium bromid, Roche, Mannheim, Germany) assay following a protocol recommended by the manufacturer. The effect of kallistatin on viable cell number was analyzed using Student's t test.

In the next series the test system is PEDF. Nature of the series: PEDF secretion in HMC under high glucose (ELISA). It counts as cell-based, human. Conditions: 30 mM glucose, 3 days. Here is the method:
FIG. 13 illustrates prevention of the high glucose-induced decrease of PEDF in HMC by kallistatin. HMC were treated with high glucose (30 mM) in the presence of different concentrations of kallistatin for 3 days. Control cells were treated with 5 mM glucose and 5 mM glucose+25 mM mannitol as an osmolarity control. PEDF secretion into the medium was measured by ELISA (mean±SD, n=3).
Kallistatin up-regulates endogenous anti-inflammatory factors in the kidney. Pigment epithelium-derived factor (PEDF) is an anti-angiogenic factor. Recently, the inventor has shown that PEDF also has anti-inflammatory activities and has a protective effect against DN (see U.S. Ser. No. 10/963,115, filed Oct. 12, 2004, the contents of which are hereby expressly incorporated herein by reference). Decreased PEDF levels in diabetic kidney may contribute to the development of DN. The effect of kallistatin on PEDF expression has been determined in kidney cells. HMC were treated with high glucose (30 mM glucose) with different concentrations of kallistatin for 3 days. The PEDF levels in the cultured medium were measured by ELISA specific for PEDF.
Background: ELISA stands for enzyme-linked immunosorbent assay.

Series [1] has as its system VEGF. In words: Retinal VEGF levels in OIR rats by Western blot. Type of series: in vivo, Brown Norway rats. Conditions: intravitreal injection of 25 μg, P<0.01. Here is the method: The effect of kallistatin on VEGF expression was also examined in vivo. After intravitreal injection of 25 μg kallistatin, VEGF levels were determined in the retina with OIR.
as §1
Western blot analysis: One hundred micrograms of total protein were used for Western blot analysis of VEGF using an ECL detection kit (Amersham International plc, Piscataway, N.J.) (Gao et al., 2001). The same membrane was stripped and re-blotted with an antibody specific to β-actin. VEGF levels were normalized by β-actin.
On the technique in general: A western blot detects proteins with antibodies after separation by electrophoresis.

For the next series, the system named is VEGF binding to RCEC. In words: VEGF binding assay (125I-VEGF). Conditions: 1 h, 0.5, 5 and 50 μg competitor (VEGF:kallistatin 1:5, 1:50, 1:500). More on the design: species or system bovine. Here is the method:
FIG. 8 illustrates inhibition of VEGF binding to RCEC by kallistatin. […] To determine the competition between kallistatin and VEGF in RCEC binding, ^125I-VEGF was added to RCEC together with 0.5, 5 and 50 μg of unlabeled kallistatin to result in VEGF:kallistatin molar ratios of 1:5, 1:50 and 1:500, respectively.
VEGF binding assay: VEGF (PeproTech, Inc., Rocky Hill, N.J.) was labeled with 125I using the Chloromine T ^125I Labeling Kit (ICN Pharmaceuticals, Inc. Costa Mesa, Calif.) following a protocol recommended by the manufacturer. For the binding assay, RCEC were seeded in 12-well plates and cultured until 80% confluency was reached. The culture medium was replaced with serum-free medium. ^125I-VEGF was added to the medium, 2.5×10^5 CPM/well with and without different concentrations of kallistatin or recombinant plasminogen kringle 5 (K5) and incubated with the cells for 1 h. The medium was removed and cells washed three times with PBS. The cells were then lysed by the addition of 0.35 ml 10% SDS. The cell lysates were collected, and the 125I-VEGF bound to RCEC was quantified by a gamma counter.

For series [2], the system named is VEGF. In words: VEGF in the conditioned medium of RCEC by ELISA. It counts as cell-based, bovine. Conditions: RCEC under hypoxia, 24 h, 5-80 nM. Here is the method: FIG. 9 illustrates down-regulation of VEGF expression by kallistatin. As increased VEGF levels in the retina and vitreous play a key role in the development of retinal neovascularization, the effect of kallistatin on the expression of VEGF in cultured RCEC was determined. VEGF secreted into the conditioned medium was measured by VEGF ELISA and normalized by total protein concentration in the medium.
Measurement of VEGF in the conditioned medium of RCEC by ELISA: RCEC were seeded in T75 flasks in endothelial cell growth medium and cultured in a CO2 incubator to reach 60-70% confluency. The cells were washed 3 times with PBS and the growth medium replaced by a serum-free medium containing bFGF (GIBCO-BRL, Gaithersburg, Md.). Kallistatin was added to the medium to various concentrations and incubated with the cells for 24 h under normoxia or hypoxia (in a chamber that was perfused with a mixture of 95% N2+5% CO2). The conditioned medium was harvested for VEGF ELISA and the cells were used for Western blot analysis. The conditioned medium was centrifuged and the protein concentration in the supernatant was measured with BioRad protein assay. VEGF concentration was measured using a VEGF ELISA kit (R& D systems, Minneapolis, Minn.) and normalized by total protein concentration in the medium.

The values below come from patent US20070298997A1, “Compounds useful in treating diabetic microvascular complications and age-related macular degeneration” (priority 2003, published 2007).

B1: kallistatin: Recombinant His-tagged rat kallistatin (serpin, SEQ ID NO:1) expressed in E. coli and affinity-purified (protein, listed as Homo sapiens)
chain: DGILGRDTLPHEDQGKGRQLHSLTLASINTDFTLSLYKKLALRNPDKNVVFSPLSISAALAILSLGAKDSTMEEILEVLKFNLTEITEEEIHHQGFGHLLQRLSQPEDQAEINTGSALFIDKEQPILSEFQEKTRALYQAEAFVADFKQCNEAKKFINDYVSNQTQGKIAELFSELDERTSMVLVNYLLFKGKWKVPFNPNDTFESEFYLDEKRSVKVPMMKIKDLTTPYIRDEELSCSVLELKYTGNASALFILPDQGKMQQVESSLQPETLKKWKDSLRPRIISELRMPKFSISTDYNLEEVLPELGIRKIFSQQADLSRITGTKNLHVSQVVHKAVLDVDETGTEGAAATAVTAALKSLPQTIPPLNFNRPFMLVITDNNGQSVFFMGKVTNPM
modifications: His tag
With B1, the “inflammatory response or toxicity to retinal tissues and normal vasculature” value in the series on retina (intravitreal injection) was “does not cause any detectable inflammatory response or toxicity”. In addition, the “histological evidence of retinal toxicity” value with retina (retinal sections after intravitreal injection) is “No apparent histological evidence of retinal toxicity”. In the series with pericytes, the “inhibition of pericytes (viable cells)” value is on record as “did not result in any significant inhibition”. In addition, the “PEDF levels in the cultured medium” value in the series with PEDF is “prevents the decrease of PEDF under the high glucose insult”; in the series with PEDF (listed as Kallistatin), “reversed the changes of PEDF under high glucose conditions”. Moreover, the “retinal VEGF levels, % of the control” value with VEGF [1] is ~35 % of the control. Besides, in the series on VEGF binding to RCEC, the “VEGF bound to RCEC” value is recorded as “decreased in a kallistatin concentration-dependent manner”. Moreover, the “VEGF secreted into the conditioned medium” value with VEGF [2] was “reduced VEGF in the medium”.
